Patent publication US20180148484A1 (Pieris, published 2018)
Where a chain is given by its changes, count along the chain named. One block for each binder: values may come before it.

How the values were obtained:
[1] = target: T1, human CD137-Fc fusion protein (Fc-fusion of the full extracellular domain of human CD137, R&D Systems 838-4B) (human, UniProt Q07011 24-186); experiment: SPR (Biacore T200, 37 C), huCD137-Fc captured via anti-human IgG-Fc antibody, mutein as analyte, 1:1 model
T1 construct: extracellular domain; Bought protein; also called huCD137-Fc; KD huCD137; not shown: Fc of human IgG (captured by an anti-human IgG-Fc antibody)
Description: Prior to the protein measurements three regeneration cycles were performed for conditioning purposes. Regeneration of the derivatized chip surface was achieved by applying 3M MgCl₂ for 60 s followed by 10 mM glycine, pH 1.7 for 180 s. Anti-human IgG-Fc antibody was utilized to immobilize huCD137-Fc in a subsequent step and taken from the human antibody capture kit (GE Healthcare, BR-1008-39). It was immobilized on a CM5 sensor chip using standard amine coupling chemistry and the immobilization buffer included in the kit (10 mM sodium acetate pH 5.0), resulting in a ligand density of about 13000 resonance units (RU). The reference channel was treated accordingly.
HuCD137-Fc at a concentration of 0.5 μg/mL was captured on this surface for 180 s at a flow rate of 10 μL/min in HBS-EP+ buffer. No target protein was applied to the reference channel. Subsequently, the lipocalin muteins were applied in an appropriate dilution series in HBS-EP+ buffer at a flow rate of 30 μL/min. Regeneration of the derivatized chip surface was achieved as described above. Data were evaluated with Biacore T200 Evaluation software (V 2.0). Double referencing was used and the 1:1 Binding model was used to fit the raw data.

[2] = target: T2, human CD137 expressed on cells (human, UniProt Q07011 24-255); experiment: FACS on CHO cells stably transfected with human CD137; anti-lipocalin primary and Alexa488 secondary antibody
T2 construct: whole, on cells; also called CHO-huCD137; CHO::hCD137
Description: (§1) To perform the experiment, CD137-positive and negative Flp-In CHO cells were incubated with lipocalin muteins, and bound mutein was labeled using anti-lipocalin primary antibodies and fluorescently labeled secondary antibodies, which were detected by FACS analysis as described in the following.
(§2) 1×10⁵ cells per well were pre-incubated for 1 h in ice-cold PBS containing 5% fetal calf serum (PBS-FCS). Subsequently, a dilution series of lipocalin muteins and negative controls typically ranging from 10 μM to 1 nM was added to the cells and incubation was continued on ice for 1 h. Cells were washed twice in ice-cold PBS using centrifugation at 300 g and then incubated with a rabbit anti-lipocalin primary antibody (Pieris, (polyclonal rabbit anti-hNGAL and rabbit anti-hTLC; Pieris) for 30 min on ice. Cells were washed twice in ice-cold PBS, re-suspended in PBS-FCS and incubated 30 min on ice with a secondary anti-rabbit antibody labelled with the fluorescent dye Alexa488 (Life Technologies). Cells were subsequently washed and analyzed using a Guava easyCyte HT Flow cytometer. Typically, a gate was set to exclude non-viable cells and 5.000 events were recorded. Numerical results are expressed as the geometric mean of the fluorescence intensity.

[3] = target: T2, human CD137 expressed on cells; experiment: cell-based or functional assay
[4] = target: T2, human CD137 expressed on cells; experiment: FACS on CHO cells stably transfected with human CD137
Description: as §1, §2

[5] = target: T1, human CD137-Fc fusion protein …; experiment: SPR, huCD137-Fc captured via anti-human IgG-Fc antibody
Source text: FIG. 1: provides typical measurements of on-rate and off-rate by surface plasmon resonance (SPR) for the interaction of various representative lipocalin muteins (SEQ ID NOs indicated in the graph) with human CD137 (Fc-fusion) as the target. The targets were immobilized via an anti-human IgG-Fc antibody, which was in turn immobilized on a sensor chip using standard amine coupling chemistry. The lipocalin muteins were employed as the soluble analyte which was flowed at different concentrations across the chip surface. […] The dissociation constants resulting from a fit (1:1 binding model) of the depicted data for all SEQ ID NOs are provided in Table 1.
Prior to the protein measurements three regeneration cycles were performed for conditioning purposes. Regeneration of the derivatized chip surface was achieved by applying 3M MgCl₂ for 60 s followed by 10 mM glycine, pH 1.7 for 180 s. Anti-human IgG-Fc antibody was utilized to immobilize huCD137-Fc in a subsequent step and taken from the human antibody capture kit (GE Healthcare, BR-1008-39). […]
HuCD137-Fc at a concentration of 0.5 μg/mL was captured on this surface for 180 s at a flow rate of 10 μL/min in HBS-EP+ buffer. […] Data were evaluated with Biacore T200 Evaluation software (V 2.0). […]

T2 sequence (Q07011 24-255): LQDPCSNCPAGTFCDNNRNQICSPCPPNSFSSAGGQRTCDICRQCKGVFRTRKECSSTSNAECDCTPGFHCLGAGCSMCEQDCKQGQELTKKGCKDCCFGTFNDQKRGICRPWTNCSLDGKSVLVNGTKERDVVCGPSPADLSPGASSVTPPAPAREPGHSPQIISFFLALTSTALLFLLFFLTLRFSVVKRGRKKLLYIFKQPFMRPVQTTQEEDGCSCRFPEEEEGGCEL

Kd [1]: 0.077 µM
EC50 [2]: 0.0137 µM
B1: lipocalin mutein of SEQ ID NO: 18 (designed binder, not shown: small tags and cut ends)
chain: QDSTSDLIPAPPLSKVPLQQNFQDNQFHGKWYVVGQAGNIRLREDKDPHKMMATIYELKEDKSYDVTGVTFDDKKCTYAISTFVPGSQPGEFTLGKIKSFPGHTSSLVRVVSTNYNQHAMVFFKFVFQNREEFYITLYGRTKELTSELKENFIRFSKSLGLPENHIVFPVPIDQCIDG
notes: expressed in E. coli with a C-terminal Strep-tag II; also called hNGAL mutein

IFN-γ production, coated mutein, anti-CD3 and anti-CD28 stimulation [3]: ≤ 2.5 fold over negative control
IFN-γ production, coated mutein, anti-CD3 stimulation only [3]: ~2.5 fold over negative control
IL-2 production, coated mutein, anti-CD3 and anti-CD28 stimulation [3]: ~6 fold over negative control
maximum response at 6.25 µg/mL coating concentration (readout not named, probably IL-2), anti-CD3 stimulation only [3]: 15 fold over negative control
proliferation rate (BrdU), coated mutein, anti-CD3 and anti-CD28 stimulation [3]: ≤ 14 fold over negative control
proliferation rate (BrdU), coated mutein, anti-CD3 stimulation only [3]: ≤ 4 fold over negative control
Kd [1]: 0.002 µM
EC50 [2]: 0.0043 µM
B2: lipocalin mutein of SEQ ID NO: 13 (designed binder, not shown: small tags and cut ends)
chain: B1 chain with H49I, G68M, T70K, T77M, A79D, S81W
notes: as for B1

Kd [1]: 0.05 µM
EC50 [2]: 0.0179 µM
B3: lipocalin mutein of SEQ ID NO: 17 (designed binder, not shown: small tags and cut ends)
chain: B1 chain with R41K, H49V, T77R, A79D, L94F
notes: as for B1

Kd [1]: 0.098 µM
B4: lipocalin mutein of SEQ ID NO: 19 (designed binder, not shown: small tags and cut ends)
chain: B1 chain with R41K, H49N, F83L, L94F
notes: as for B1

Kd [1]: 0.138 µM
EC50 [2]: 0.018 µM
B5: lipocalin mutein of SEQ ID NO: 20 (designed binder, not shown: small tags and cut ends)
chain: B1 chain with H49S, G68A, T77N
notes: as for B1

Kd [1]: 0.036 µM
B6: lipocalin mutein of SEQ ID NO: 12 (designed binder, not shown: small tags and cut ends)
chain: B1 chain with R41K, H49N, D65N
notes: as for B1

Kd [1]: 0.009 µM
EC50 [2]: 0.0045 µM
B7: lipocalin mutein of SEQ ID NO: 14 (designed binder, not shown: small tags and cut ends)
chain: B1 chain with H49N, G68A, T70A, A79D, S81W
notes: as for B1

Kd [1]: 0.023 µM
EC50 [2]: 0.0078 µM
B8: lipocalin mutein of SEQ ID NO: 15 (designed binder, not shown: small tags and cut ends)
chain: B1 chain with R41K, H49N, G68A, T70A, A79D, S81W
notes: as for B1

binding result [4]: no binding
binding result [5]: no binding
B9: negative control, wild-type like lipocalin mutein SEQ ID NO: 4 (other)
chain: QDSTSDLIPAPPLSKVPLQQNFQDNQFHGKWYVVGLAGNAILREDKDPQKMYATIYELKEDKSYNVTSVLFRKKKCDYWIRTFVPGSQPGEFTLGNIKSYPGLTSYLVRVVSTNYNQHAMVFFKKVSQNREYFKITLYGRTKELTSELKENFIRFSKSLGLPENHIVFPVPIDQCIDG
notes: captured by anti-hNGAL antibody in the T-cell assays

Kd [1]: 0.03 µM
B10: lipocalin mutein of SEQ ID NO: 16 (designed binder, not shown: small tags and cut ends)
chain: QDSTSDLIPAPPLSKVPLQQNFQDNQFHGKWYVVGQAGNIKLREDSKMMATIYELKEDKSYDVTGVSFDDKKCTYAIMTFVPGSQPGEFTLGKIKSFPGHTSSLVRVVSTNYNQHAMVFFKFVFQNREEFYITLYGRTKELTSELKENFIRFSKSLGLPENHIVFPVPIDQCIDG
notes: as for B1
